The values below come from IntAct's records for PubMed 20876572.

B1: Methylmalonic aciduria type A protein, mitochondrial (Homo sapiens), Q8IVH4 (parent)
chain: MPMLLPHPHQHFLKGLLRAPFRCYHFIFHSSTHLGSGIPCAQPFNSLGLHCTKWMLLSDGLKRKLCVQTTLKDHTEGLSDKEQRFVDKLYTGLIQGQRACLAEAITLVESTHSRKKELAQVLLQKVLLYHREQEQSNKGKPLAFRVGLSGPPGAGKSTFIEYFGKMLTERGHKLSVLAVDPSSCTSGGSLLGDKTRMTELSRDMNAYIRPSPTRGTLGGVTRTTNEAILLCEGAGYDIILIETVGVGQSEFAVADMVDMFVLLLPPAGGDELQGIKRGIIEMADLVAVTKSDGDLIVPARRIQAEYVSALKLLRKRSQVWKPKVIRISARSGEGISEMWDKMKDFQDLMLASGELTAKRRKQQKVWMWNLIQESVLEHFRTHPTVREQIPLLEQKVLIGALSPGLAADFLLKAFKSRD
partner: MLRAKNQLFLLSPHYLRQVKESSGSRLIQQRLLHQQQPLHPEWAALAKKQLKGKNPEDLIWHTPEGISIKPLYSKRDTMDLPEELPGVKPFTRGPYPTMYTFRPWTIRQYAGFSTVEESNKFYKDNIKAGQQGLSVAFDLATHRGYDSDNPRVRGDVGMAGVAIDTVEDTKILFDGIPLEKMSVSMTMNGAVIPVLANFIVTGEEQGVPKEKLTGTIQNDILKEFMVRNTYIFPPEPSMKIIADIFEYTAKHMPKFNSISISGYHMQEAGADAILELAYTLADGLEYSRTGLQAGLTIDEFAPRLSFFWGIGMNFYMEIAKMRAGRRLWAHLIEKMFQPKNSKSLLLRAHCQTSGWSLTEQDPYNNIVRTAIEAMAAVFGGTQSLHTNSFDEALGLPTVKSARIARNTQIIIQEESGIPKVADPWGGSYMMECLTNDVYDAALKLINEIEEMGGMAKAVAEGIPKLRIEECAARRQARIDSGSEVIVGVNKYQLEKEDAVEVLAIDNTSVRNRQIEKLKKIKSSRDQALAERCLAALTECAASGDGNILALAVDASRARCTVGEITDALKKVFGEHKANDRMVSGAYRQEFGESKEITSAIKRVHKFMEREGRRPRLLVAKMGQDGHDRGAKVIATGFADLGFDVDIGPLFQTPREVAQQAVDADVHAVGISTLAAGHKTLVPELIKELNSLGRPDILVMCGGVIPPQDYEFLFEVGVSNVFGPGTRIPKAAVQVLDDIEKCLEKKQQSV

The variants in the test derive from B1. The note with it: with muta_human MMUT.
Take MPMLLPHPHQHFLKGLLRAPFRCYHFIFHSSTHLGSGIPCAQPFNSLGLHCTKWMLLSDGLKRKLCVQTTLKDHTEGLSDKEQRFVDKLYTGLIQGQRACLAEAITLVESTHSRKKELAQVLLQKVLLYHREQEQSNKGKPLAFRVGLSGPPGAGKSTFIEYFGKMLTERGHKLSVLAVDPSSCTSGRSLLGDKTRMTELSRDMNAYIRPSPTRGTLGGVTRTTNEAILLCEGAGYDIILIETVGVGQSEFAVADMVDMFVLLLPPAGGDELQGIKRGIIEMADLVAVTKSDGDLIVPARRIQAEYVSALKLLRKRSQVWKPKVIRISARSGEGISEMWDKMKDFQDLMLASGELTAKRRKQQKVWMWNLIQESVLEHFRTHPTVREQIPLLEQKVLIGALSPGLAADFLLKAFKSRD [G188R]: the “effect of a mutation on the interaction” value is “disrupting interaction strength”.
